# Assay results taken from doi:10.1101/2020.01.16.909549.
# T1: Rad4 Δβ-hairpin3 crosslinking construct (<SC41B>);Rad23 (crystal) (Saccharomyces cerevisiae?;Saccharomyces …, UniProt P14736;P32628 101-632;230-398, V131C;C132S;del599-605|)
# T1 sequence 1: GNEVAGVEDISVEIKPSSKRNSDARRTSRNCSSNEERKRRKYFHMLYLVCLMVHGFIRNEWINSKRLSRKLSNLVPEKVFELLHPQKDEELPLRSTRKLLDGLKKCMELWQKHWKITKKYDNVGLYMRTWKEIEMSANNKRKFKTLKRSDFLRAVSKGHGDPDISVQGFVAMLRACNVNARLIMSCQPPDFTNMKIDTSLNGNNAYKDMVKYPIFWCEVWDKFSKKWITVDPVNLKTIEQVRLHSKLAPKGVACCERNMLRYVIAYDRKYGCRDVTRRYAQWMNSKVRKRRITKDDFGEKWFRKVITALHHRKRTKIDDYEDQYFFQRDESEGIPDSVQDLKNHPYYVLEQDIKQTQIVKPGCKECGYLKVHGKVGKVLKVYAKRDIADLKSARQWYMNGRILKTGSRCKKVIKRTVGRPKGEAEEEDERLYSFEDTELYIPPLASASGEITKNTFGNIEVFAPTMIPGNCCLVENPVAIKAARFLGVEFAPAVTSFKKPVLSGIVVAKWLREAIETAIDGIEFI
# T1 sequence 2: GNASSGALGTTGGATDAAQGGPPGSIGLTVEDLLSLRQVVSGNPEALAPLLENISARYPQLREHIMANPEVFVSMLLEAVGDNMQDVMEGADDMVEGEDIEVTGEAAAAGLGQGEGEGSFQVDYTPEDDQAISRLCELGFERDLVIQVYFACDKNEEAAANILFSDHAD
# B1: CGC/GCG 23-bp crystal DNA (CH9c) (dsDNA)
# DNA 1: TTGACTCGACATCGCGCGCTACA
# DNA 2: ATGTAGCGCGCGATGTCGAGTCA
# modifications: disulfide (cystamine)-tethered dG* at top strand position 8, from 2-F-dI
# Target: T1, Rad4 Δβ-hairpin3 crosslinking construct …
# Assay: X-ray crystallography
binder,measurement,value
B1,binding result,binds
